This assay concerns the target HBsAg on HBV virions (HBV from HepDE19 cell supernatant) (Hepatitis B virus). As to the kind of experiment: cell-based or functional assay.

IC50, in vitro HBV neutralization on HepG2-NTCP cells (ELISA read-out) and IC50, in vitro HBV neutralization on HepG2-NTCP cells (HBcAg immunofluorescence read-out) data for 1 substance are collected here from US20220315645A1.

Take libivirumab (antibody): the IC50, in vitro HBV neutralization on HepG2-NTCP cells (ELISA read-out) was determined as 0.035 µg/mL and the IC50, in vitro HBV neutralization on HepG2-NTCP cells (HBcAg immunofluorescence read-out) was 0.128 µg/mL.
